Results published in article PMC6147784, “Molecular mechanism of the Escherichia coli AhpC in the function of a chaperone under heat-shock conditions” (Scientific Reports, 2018).

B1: Escherichia coli alkyl hydroperoxide reductase subunit C (EcAhpC), His-tagged recombinant wild type (protein)
chain: MSLINTKIKPFKNQAFKNGEFIEITEKDTEGRWSVFFFYPADFTFVCPTELGDVADHYEELQKLGVDVYAVSTDTHFTHKAWHSSSETIAKIKYAMIGDPTGALTRNFDNMREDEGLADRATFVVDPQGIIQAIEVTAEGIGRDASDLLRKIKAAQYVASHPGEVCPAKWKEGEATLAPSLDLVGKI
B2: Escherichia coli alkyl hydroperoxide reductase subunit C (EcAhpC), His-tagged recombinant wild type (enzyme, UniProt P0AE08 1-187, looked up)
chain: B1 chain
modifications: disulfide bonded (referred as oxidized form) as purified; reduced with DTT (kept with TCEP or DTT) in the assays marked as reduced
notes: Alkyl hydroperoxide reductase subunit C (AhpC) of Escherichia coli, the entire enzyme; the C-terminal extension is printed as aa 173-187; The same construct was used as the oxidized (intermolecular disulphide) and as the reduced form; the assay's format tells which; also called WT EcAhpC; oxidized EcAhpC; source: E. coli, purified (Ni2+-NTA, gel filtration on Superdex 75)

Key:
P0AE08 [1] = experiment: SEC; 10 µM protein (oxidized form) incubated at 53 °C for 60 min in 50 mM phosphate pH 7.0, cooled to room temperature, centrifuged; Superdex 200 10/300 GL in 50 mM Tris pH 7; dimers to HMW oligomers
P0AE08 [2] = experiment: SEC; 10 µM reduced EcAhpC (pre-reduced with 20 mM DTT, desalted) incubated at 53 °C for 60 min in 50 mM phosphate pH 7.0 with 1 mM TCEP, centrifuged; Superdex 200 10/300 GL; to HMW oligomers
P0AE08 [3] = experiment: SEC; 10 µM oxidized EcAhpC incubated at 48 °C for 60 min in 50 mM phosphate pH 7.0, cooled to room temperature, centrifuged; Superdex 200 10/300 GL in 50 mM Tris pH 7; dimers to HMW oligomers
P0AE08 [4] = experiment: SEC; 10 µM oxidized EcAhpC incubated at 50 °C for 60 min in 50 mM phosphate pH 7.0, cooled to room temperature, centrifuged; Superdex 200 10/300 GL in 50 mM Tris pH 7; dimers to HMW oligomers
[5] = target: the molecule itself; experiment: SEC; 10 µM protein (oxidized form) incubated at 25 °C for 60 min in 50 mM phosphate pH 7.0, centrifuged; Superdex 200 10/300 GL in 50 mM Tris pH 7 at room temperature; mass estimated from standards
[6] = target: the molecule itself; experiment: dynamic light scattering; 1 mg/ml (50 µM) reduced EcAhpC (5 mM DTT) in 50 mM phosphate pH 7.0, equilibrated 10 min at 25 °C

Protein	peak ratio (8.0 ml HMW peak to 15.5 ml dimer peak) (P0AE08 [1])	peak ratio (8 ml HMW peak to 16.5 ml peak) (P0AE08 [2])	peak ratio (8.0 ml HMW peak to 15.5 ml dimer peak) (P0AE08 [3])	peak ratio (8.0 ml HMW peak to 15.5 ml dimer peak) (P0AE08 [4])	stoichiometry N [5]	stoichiometry N [6]
B1	0.9:1	about 10:1	0.02:1	0.2:1	–	–
B2	–	–	–	–	2	10
